Assay results published in paper PMC7958410, “Hepatitis B virus X protein promotes vimentin expression via LIM and SH3 domain protein 1 to facilitate epithelial-mesenchymal transition and hepatocarcinogenesis” (Cell Communication and Signaling : CCS, 2021).

Biological target: T1, His-vimentin (UniProt P08670 1-466)
T1 construct: vimentin; also called vimentin with His Tag; source: E. coli DH5α, purified by His-beads
Test: pull-down; GST fusion bound to glutathione-Sepharose beads incubated with purified His-tagged protein at 4 °C; washed 3 times with binding buffer; western blot
Conditions: both partners purified

T1 sequence (P08670 whole entry): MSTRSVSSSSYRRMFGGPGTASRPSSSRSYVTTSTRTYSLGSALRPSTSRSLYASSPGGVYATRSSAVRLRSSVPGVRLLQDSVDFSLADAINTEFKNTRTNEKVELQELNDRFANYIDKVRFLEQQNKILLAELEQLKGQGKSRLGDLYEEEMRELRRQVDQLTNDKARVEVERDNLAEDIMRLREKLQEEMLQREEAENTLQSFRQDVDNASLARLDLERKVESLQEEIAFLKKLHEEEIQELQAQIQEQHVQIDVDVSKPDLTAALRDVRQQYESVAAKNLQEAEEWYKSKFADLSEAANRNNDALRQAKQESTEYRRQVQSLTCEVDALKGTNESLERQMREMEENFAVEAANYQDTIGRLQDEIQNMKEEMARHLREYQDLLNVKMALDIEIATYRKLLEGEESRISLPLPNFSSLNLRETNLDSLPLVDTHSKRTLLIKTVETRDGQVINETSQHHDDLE

B1: GST-LASP1 (natural protein, UniProt Q14847 1-261, looked up)
chain: MNPNCARCGKIVYPTEKVNCLDKFWHKACFHCETCKMTLNMKNYKGYEKKPYCNAHYPKQSFTMVADTPENLRLKQQSELQSQVRYKEEFEKNKGKGFSVVADTPELQRIKKTQDQISNIKYHEEFEKSRMGPSGGEGMEPERRDSQDGSSYRRPLEQQQPHHIPTSAPVYQQPQQQPVAQSYGGYKEPAAPVSIQRSAPGGGGKRYRAVYDYSAADEDEVSFQDGDTIVNVQQIDDGWMYGTVERTGDTGMLPANYVEAI
notes: LIM and SH3 domain protein 1 (LASP1); also called LASP1 with GST Tag
B1: binds.
